According to publication PMC4681064:

Key:
Assay in all cases: GST pulldown, Western blot densitometry
Conditions in all cases: incubated overnight with lysates; GST-only control 10 (PA2 lysate), 8 (WT lysate)
[1] = target: GST-tagged CMS SH3 domain I
[2] = target: GST-tagged CMS SH3 domain III
[3] = target: GST-tagged CMS SH3 domain II

## HCV NS5A protein (WT) expressed from SGR-neo-JFH-1 (from UniProt Q99IB8) PA2: P2 motif PTPPPR -> ATPAAA (P->A; P->A; P->A; R->A; residue numbers not printed)
[1]
  response (NS5A:GST-SH3 ratio (%)): 16
[2]
  response (NS5A:GST-SH3 ratio (%)): 10
[3]
  response (NS5A:GST-SH3 ratio (%)): 9
